Consider two molecules from patent US20200317807A1.

In one test the target is mouse CD70 (mouse) (UniProt O55237). The test can be described thus: cell-based or functional assay.
A further test addresses T1, CD70 (human) (UniProt P32970).
T1 sequence: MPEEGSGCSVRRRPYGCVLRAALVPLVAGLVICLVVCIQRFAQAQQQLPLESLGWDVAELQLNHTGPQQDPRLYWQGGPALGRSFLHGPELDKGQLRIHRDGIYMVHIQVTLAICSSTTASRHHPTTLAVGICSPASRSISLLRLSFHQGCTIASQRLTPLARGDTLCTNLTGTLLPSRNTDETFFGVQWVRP
The test can be described thus: cell-based or functional assay.

UniProt O55237, sequence (O55237 whole entry): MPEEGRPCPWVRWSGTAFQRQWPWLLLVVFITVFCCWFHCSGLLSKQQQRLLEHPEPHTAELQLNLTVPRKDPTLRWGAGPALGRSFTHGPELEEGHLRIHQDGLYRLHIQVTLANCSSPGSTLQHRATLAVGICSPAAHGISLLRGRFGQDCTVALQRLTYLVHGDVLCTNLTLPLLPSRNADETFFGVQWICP

B1: mCD27-CD3ζ CAR (full-length mouse CD27 and a mouse CD3ζ T cell intracellular signaling domain) (receptor)
chain: PNSCPDKHYWTGGGLCCRMCEPGTFFVKDCEQDRTAAQCDPCIPGTSFSPDYHTRPHCESCRHCNSGFLIRNCTVTANAECSCSKNWQCRDQECTECDPPLNPALTRQPSETPSPQPPPTHLPHGTEKPSWPLHRQLPNSTVYSQRSSHRPLCSSDCIRIFVTFSSMFLIFVLGAILFFHQRRNHGPNEDRQAVPEEPCPYSCPREEEGSAIPIQEDYRKPEPAFYPRAKFSRSAETAANLQDPNQLYNELNLGRREEYDVLEKKRARDPEMGGKQQRRRNPQEGVYNALQKDKMAEAYSEIGTKGERRRGKGHDGLYQGLSTATKDTYDALHMQTLAPR
B1 yielded an IFN-γ (pg/ml), mouse T cells/mCD27-CD3ζ CAR co-cultured with B16/mCD70 with mouse CD70 (mouse) of 642000 pg/mL.

B2: full length (f) CD27-CD3ζ CAR (full-length human CD27 and a human CD3ζ T cell intracellular signaling domain) (receptor)
chain: ATPAPKSCPERHYWAQGKLCCQMCEPGTFLVKDCDQHRKAAQCDPCIPGVSFSPDHHTRPHCESCRHCNSGLLVRNCTITANAECACRNGWQCRDKECTECDPLPNPSLTARSSQALSPHPQPTHLPYVSEMLEARTAGHMQTLADFRQLPARTLSTHWPPQRSLCSSDFIRILVIFSGMFLVFTLAGALFLHQRRKYRSNKGESPVEPAEPCRYSCPREEEGSTIPIQEDYRKPEPACSPRVKFSRSADAPAYQQGQNQLYNELNLGRREEYDVLDKRRGRDPEMGGKPRRKNPQEGLYNELQKDKMAEAYSEIGMKGERRRGKGHDGLYQGLSTATKDTYDALHMQALPPR
B2: in the test with CD70 (human), the IFN-γ (pg/ml), co-culture with 624/CD70 (CD70 Positive) is 6480 pg/mL; the IFN-γ (pg/ml), co-culture with RCC 1581 (CD70 Pos) turned out to be 11800 pg/mL; the IFN-γ (pg/ml), co-culture with RCC 2095R (CD70 Pos) is 5820 pg/mL; the IFN-γ (pg/ml), co-culture with RCC 2219R (CD70 Pos) turned out to be 12100 pg/mL. In the test with CD70 (human), this molecule returned an IFN-γ (pg/ml), co-culture with RCC 2245R (CD70 Pos) of 9110 pg/mL; an IFN-γ (pg/ml), co-culture with RCC 2246R (CD70 Pos) of 8220 pg/mL; an IFN-γ (pg/ml), co-culture with RCC 2261R (CD70 Pos) of 7270 pg/mL; an IFN-γ (pg/ml), co-culture with RCC 2361R (CD70 Pos) of 2260 pg/mL. Also, in the test with CD70 (human), the IFN-γ (pg/ml), co-culture with RCC 2654R (CD70 Pos) is 7890 pg/mL and the IFN-γ (pg/ml), co-culture with RCC 2657R (CD70 Pos) amounted to 3510 pg/mL.
